Broadly, the Kd is the free concentration of one partner at which half of the binding sites on the other are occupied at equilibrium, for simple one-to-one binding. One may read the EC50 (read off the curve) as the concentration needed to bring the measured effect to its halfway point.

Positions count from the first letter of the chain named.

In assay [1] the target is T1, recombinant human CD25 his tagged (human, UniProt P01589 22-240).
T1 construct: also called rhCD25; rhCD25-his tag; not shown: His tag
T1 sequence: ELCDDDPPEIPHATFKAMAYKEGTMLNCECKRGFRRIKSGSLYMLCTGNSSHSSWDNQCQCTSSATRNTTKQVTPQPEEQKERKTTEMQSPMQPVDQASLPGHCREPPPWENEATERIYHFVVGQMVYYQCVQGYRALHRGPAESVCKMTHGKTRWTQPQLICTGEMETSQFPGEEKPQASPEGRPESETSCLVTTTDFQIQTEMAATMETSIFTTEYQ
Nature of the assay: SPR, Biacore 2000: IgG1 captured on the chip, rhCD25-his tag as analyte. On the technique in general: Surface plasmon resonance follows binding to a sensor surface in real time, without labels.

In assay [2] the target is T1, recombinant human CD25 his tagged. The description is as above. This is another data set of the same source.
The target is the same in assay [3]. The assay is described as above. This is another data set of the same source.
For assay [4] the target is unchanged. The assay is described as above. This is another data set of the same source.
Assay [5] concerns the target T2, human CD25 antigen, R&D Systems cat no. 223-2A/CF (~10% dimer) (human, UniProt P01589 22-213, limits assumed).
T2 construct: Bought protein; also called R&D Systems (~10% dimer)
T2 sequence: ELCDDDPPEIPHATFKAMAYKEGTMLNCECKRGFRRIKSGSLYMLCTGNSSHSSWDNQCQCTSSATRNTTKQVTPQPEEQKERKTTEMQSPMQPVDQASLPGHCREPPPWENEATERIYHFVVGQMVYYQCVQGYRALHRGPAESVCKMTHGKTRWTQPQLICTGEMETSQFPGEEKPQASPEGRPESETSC
Nature of the assay: SPR, Biacore T200, antibody captured by anti-human Fab on CM5, CD25 as analyte, Two State Reaction fit; column printed as 'Binding strength'.
Excerpt: (§1) Binding of CD25 antibodies to human CD25 antigen was investigated by surface plasmon resonance using a BIACORE T200 instrument (GE Healthcare).
(§2) For calculation of KD and kinetic parameters Biacore provided fitting models were used to obtain optimal curve fitting results. The 1:1 Langmuir fit was used for P1AA5872 and the Two State Kinetic fitting for CD25 from Sino Biologicals and R&D Systems.

The target of assay [6] is T3, human CD25 expressed on cells (human, UniProt P01589 22-272).
T3 construct: Endogenous CD25 on human cell lines and primary cells
T3 sequence: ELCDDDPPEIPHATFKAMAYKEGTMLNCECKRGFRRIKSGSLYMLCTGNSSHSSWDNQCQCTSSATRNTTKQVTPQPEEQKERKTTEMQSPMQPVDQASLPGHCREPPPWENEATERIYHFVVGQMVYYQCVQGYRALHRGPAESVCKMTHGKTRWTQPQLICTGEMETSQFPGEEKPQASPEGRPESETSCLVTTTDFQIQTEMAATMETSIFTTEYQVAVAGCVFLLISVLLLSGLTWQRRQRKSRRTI
Nature of the assay: flow cytometry on CD3/CD28 bead activated human Pan T cells, gated on CD8+ T cells. On the technique in general: A flow cytometer gives signals particle by particle.
Description: (§3) Binding to CD25 expressing activated human and Cynomolgus monkey PMBC was examined by staining test articles (anti-CD25 primary antibodies) with 20 μg/ml antibodies followed by semi-log dilution series (7-point) for 30 minutes on ice. This was followed by staining with a secondary antibody (rabbit anti-human Fcg F(ab′)2-(Jackson ImmunoResearch)) concentration of 5 μg/ml for 30 minutes on ice. All samples were stained in triplicates. To minimize cross-linking induced cell death mediated by binding of the secondary antibody, cell lines were examined in staining cohorts of 4 test articles at a time. Live lymphocytes were gated using FSC vs SSC parameters by flow cytometry during sample acquisition. Mean fluorescence intensity (MFI) of gated CD4⁺ and CD8⁺ T cell subsets were plotted on an XY chart, graphing MFI against the log of the concentration, and the data fit to a non-linear regression curve from which the EC50 was calculated.

Assay [7] deals with T1, recombinant human CD25 his tagged. Nature of the assay: BLI, ForteBio Octet Red96, IgG on AHC sensors, rhCD25-His in solution, global 1:1 fit.
Description: Sensors were equilibrated off-line in assay buffer for 10 min and then monitored on-line for 60 seconds for baseline establishment. […] Then, 1:3 serial dilutions (from 1 uM to 4 nM) of recombinant human CD25 HIS tagged was associated to the loaded IgG for 10 min. Afterwards they were transferred to assay buffer for 6.6 min for off-rate measurement. Kinetics data were fit using a global 1:1 binding model in the ForteBio Data Analysis Software 9.0 with reference subtraction.
The target is the same in assay [8]. Nature of the assay: SPR, Biacore 2000, IgG captured by anti-human antibody on CM5, rhCD25-His as analyte, two state reaction fit.
Description: Anti-human antibody was initially immobilised across all flow cells in analysis buffer (pH 7.4, 10 mM HEPES, 150 mM NaCl, 3 mM EDTA, 0.05% Tween 20) to an RU of between 12,000-14,000 over 10 minutes. […] Dissociation was performed in analysis buffer over 10 minutes. Regeneration steps between sample concentrations were performed in 10 mM Glycin pH1.7 for 10 minutes. A flow rate of 25 μl/min was maintained throughout the process. Kinetics data were fit using a global two state reaction conformational change analysis software provided by Biacore with reference subtraction.
The target of assay [9] is T4, human CD25 antigen, Sino Biologicals cat no. 10165-H08H (~20% dimer) (human, UniProt P01589 22-213).
T4 construct: Bought protein; also called Sino biological (~20% dimer)
T4 sequence: T2 sequence
The experiment in a line: SPR, Biacore T200, antibody captured by anti-human Fab on CM5, CD25 as analyte, Two State Reaction fit; column printed as 'Binding strength'; Sino Biological CD25 (~20% dimer), Two State Reaction fit.
Excerpt: as §1, §2

In assay [10] the target is T3, human CD25 expressed on cells. The experiment in a line: flow cytometry on CD3/CD28 bead activated human Pan T cells, gated on CD4+ T cells.
Description: as §3
Assay [11] deals with T5, inhouse produced monomeric human CD25 antigen (P1AA5872) (human, UniProt P01589 22-240, limits assumed).
T5 construct: also called Inhouse (0% dimer)
T5 sequence: T1 sequence
The experiment in a line: SPR, Biacore T200, antibody captured by anti-human Fab on CM5, monomeric CD25 as analyte, 1:1 Langmuir fit; column printed as 'Binding strength'.
Excerpt: as §1, §2

In assay [12] the target is T1, recombinant human CD25 his tagged. Nature of the assay: SPR, Biacore 2000: IgG1 captured on the chip, rhCD25-his tag as analyte. This is another data set of the same source.

B1: aCD25-a-646-m2 (antibody, IgG1, V domains shown)
VH: QVQLVESGGGLVQPGGSLRLSCAASGFTFPSYGMHWVRQAPGKGLEWVAVIWYDAINKYYADSVKGRFTISRDNSKNTLYLQMNSLRAEDTAVYYCARDLGYGDYAAHDYWGQGTLVTVSS
VL: DIQMTQSPSTLSASVGDRVTITCRASQSISSWLAWYQQKPGKAPKLLIYKASSLESGVPSRFSGSGSGTEFTLTISSLQPDDFATYYCQQHNTHPYTFGGGTKVEIK
In the case of B1, the equilibrium dissociation constant (Kd) in assay [1] came to 0.36 nM.

B2: aCD25-a-646-m4 (antibody, IgG1, V domains shown)
VH: B1 VH with L11V, G16R, I56S, N57T
VL: B1 VL
Take B2: the Kd in [2] stood at 0.56 nM.

B3: aCD25-a-646-m1 (antibody, IgG1, V domains shown)
VH: B1 VH with Q1E, Q13K, P30A, I56S, N57T
VL: B1 VL
For B3, the Kd in assay [3] came out at 1.43 nM.

B4: aCD25-a-646-m5 (antibody, IgG1, V domains shown)
VH: B1 VH with Q1E, V5L, I56L
VL: B1 VL
Turning to B4, the Kd in [4] stood at 0.31 nM.

B5: aCD25-a-646 (antibody, V domains shown)
VH: B1 VH with L11V, G16R, P30S, A55G, I56S, Y59G
VL: B1 VL
notes: also called parental clone
As to B5, the dissociation constant (Kd) in [5] is 15 nM; in assay [7] it was 3.65 nM; in assay [8], 3.8 nM; in assay [9], 8.5 nM; in assay [11], 77 nM. The 50% effective concentration (EC50 (read off the curve)) in assay [6] and in assay [10] was approximately 0.2 µg/mL each time.

B6: aCD25-a-646-m3 (antibody, IgG1, V domains shown)
VH: B1 VH with L11V, G16R, I56V
VL: B1 VL
On to B6, for which the Kd in [12] came to 0.42 nM.

For the origin of these results see patent US20190300613A1 (TUSK THERAPEUTICS, published 2019).
